Assay results: US20170306037A1 (Novartis, published 2017)
Changes are numbered by the printed parent chain. Blank lines part the entries; values can stand above or below the binder they belong to.

Legend:
HVEM = biological target: T1, HVEM (human, UniProt Q92956); experiment: specificity ELISA, bacterial lysate on HisGrab nickel plate
T1 sequence (receptor, looked up): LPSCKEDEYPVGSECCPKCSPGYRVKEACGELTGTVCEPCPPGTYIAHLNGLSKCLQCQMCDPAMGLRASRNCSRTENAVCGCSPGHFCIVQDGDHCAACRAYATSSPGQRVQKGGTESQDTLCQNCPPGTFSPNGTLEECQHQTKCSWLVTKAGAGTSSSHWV
Procedure: (§1) For the specificity ELISA, a crude cell lysate was made from bacteria expressing members of the TNFRSF family. To prevent nonspecific binding to the plate 50 μL of 5% BSA was added per mL of bacterial lysate. […] The plate was then rinsed three times with PBST, then MAB was diluted to 0.5 μg/mL in 10% FBS in PBS and 100 μL was added to each well. The plate was incubated for 1 hour at room temperature and then rinsed three times with PBST. Anti-human kappa antibody (Sigma #A7164) conjugated to HRP was diluted 1:5000 in 1:1 PBST: 10% FBS in PBS and 100 μL added to each well. The plate was incubated for 1 hour at room temperature, and then washed three times with PBST. 100 μL of SureBlue TMB substrate was added to each well and the plate was incubated for about 10 min at room temperature before stopping the reaction with 100 μL /well of 2N H₂SO₄.

DcR2 = biological target: T2, DcR2 (human, UniProt Q9UBN6); experiment: as above
T2 sequence (receptor, looked up): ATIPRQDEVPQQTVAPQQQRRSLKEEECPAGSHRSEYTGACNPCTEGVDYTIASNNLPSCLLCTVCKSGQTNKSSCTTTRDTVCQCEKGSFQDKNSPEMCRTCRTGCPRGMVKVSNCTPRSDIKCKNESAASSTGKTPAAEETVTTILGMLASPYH
Procedure: as §1

TNFR1 = biological target: T3, TNFR1 (human, UniProt P19438); experiment: as above
T3 sequence (receptor, looked up): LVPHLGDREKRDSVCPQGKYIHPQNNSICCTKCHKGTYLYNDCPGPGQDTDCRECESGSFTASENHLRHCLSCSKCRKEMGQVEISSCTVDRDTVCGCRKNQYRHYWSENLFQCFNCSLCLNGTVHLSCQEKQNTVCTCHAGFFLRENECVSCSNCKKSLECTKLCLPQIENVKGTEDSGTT
Procedure: as §1

BAFFR = biological target: T4, BAFFR (human, UniProt Q96RJ3); experiment: as above
T4 sequence (receptor, looked up): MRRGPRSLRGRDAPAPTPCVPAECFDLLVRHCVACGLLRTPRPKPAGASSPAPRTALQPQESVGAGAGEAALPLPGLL
Procedure: as §1

OX40 = biological target: T5, OX40 (human, UniProt P43489); experiment: as above
T5 sequence (receptor, looked up): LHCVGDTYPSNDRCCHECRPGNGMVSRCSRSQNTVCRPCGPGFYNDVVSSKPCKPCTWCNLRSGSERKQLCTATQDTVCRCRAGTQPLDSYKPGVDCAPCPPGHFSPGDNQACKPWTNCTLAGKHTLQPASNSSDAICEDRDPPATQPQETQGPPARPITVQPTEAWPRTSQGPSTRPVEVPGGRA
Procedure: as §1

CD30 = biological target: T6, CD30 (human, UniProt P28908); experiment: as above
T6 sequence (receptor, looked up): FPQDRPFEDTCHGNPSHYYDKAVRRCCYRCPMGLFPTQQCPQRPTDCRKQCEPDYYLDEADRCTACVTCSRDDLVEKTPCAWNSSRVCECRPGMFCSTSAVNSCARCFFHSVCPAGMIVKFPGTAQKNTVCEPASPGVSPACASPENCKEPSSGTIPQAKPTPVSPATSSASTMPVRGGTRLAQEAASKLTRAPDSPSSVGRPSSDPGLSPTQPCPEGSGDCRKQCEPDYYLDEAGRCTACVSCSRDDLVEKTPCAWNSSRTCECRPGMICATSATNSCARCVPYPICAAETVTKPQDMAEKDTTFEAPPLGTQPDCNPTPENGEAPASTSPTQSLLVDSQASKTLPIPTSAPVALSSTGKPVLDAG
Procedure: as §1

NGFR = biological target: T7, NGFR (human, UniProt P08138); experiment: as above
T7 sequence (receptor, looked up): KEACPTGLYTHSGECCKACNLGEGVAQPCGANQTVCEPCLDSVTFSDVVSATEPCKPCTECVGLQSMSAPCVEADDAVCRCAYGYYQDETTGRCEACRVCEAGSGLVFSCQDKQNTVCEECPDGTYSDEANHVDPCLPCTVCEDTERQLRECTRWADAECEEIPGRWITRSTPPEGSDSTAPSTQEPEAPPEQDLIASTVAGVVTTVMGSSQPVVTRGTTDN
Procedure: as §1

CD27 = biological target: T8, CD27 (human, UniProt P26842); experiment: as above
T8 sequence (receptor, looked up): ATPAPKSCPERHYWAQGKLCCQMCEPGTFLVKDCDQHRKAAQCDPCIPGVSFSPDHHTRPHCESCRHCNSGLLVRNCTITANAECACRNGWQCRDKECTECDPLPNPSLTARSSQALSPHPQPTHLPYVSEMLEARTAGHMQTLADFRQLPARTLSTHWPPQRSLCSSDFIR
Procedure: as §1

[1] = biological target: T9, human GITR expressed on cells (human, UniProt Q9Y5U5 27-241); experiment: cell-based or functional assay
T9 sequence: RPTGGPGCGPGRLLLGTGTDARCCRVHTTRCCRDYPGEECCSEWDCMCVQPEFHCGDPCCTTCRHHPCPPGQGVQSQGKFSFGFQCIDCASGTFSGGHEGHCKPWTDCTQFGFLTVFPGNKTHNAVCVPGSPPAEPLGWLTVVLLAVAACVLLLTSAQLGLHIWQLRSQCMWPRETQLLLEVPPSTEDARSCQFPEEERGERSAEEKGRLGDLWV

EC50, NFκB-luciferase reporter in 293 cells overexpressing human GITR, antibody cross-linked [1]: ~2.5 nM
B1: MAB4 (IgG1 kappa) (antibody, V domains shown)
VH: EVQLVESGGGLVQSGGSLRLSCAASGFSLSSYGVDWVRQAPGKGLEWVGVIWGGGGTYYASSLMGRFTISRDNSKNTLYLQMNSLRAEDTAVYYCAKHAYGHDGGFAMDYWGQGTLVTVSS
VL: EIVMTQSPATLSVSPGERATLSCRASESVSSNVAWYQQRPGQAPRLLIYGASNRATGIPARFSGSGSGTDFTLTISRLEPEDFAVYYCGQSYSYPFTFGQGTKLEIKR
binding result (HVEM): no binding (tested: not on the sheet; paragraph 335: 0.5 µg/mL)
binding result (DcR2): no binding (tested: not on the sheet; paragraph 335: 0.5 µg/mL)
binding result (TNFR1): no binding (tested: not on the sheet; paragraph 335: 0.5 µg/mL)
binding result (BAFFR): no binding (tested: not on the sheet; paragraph 335: 0.5 µg/mL)
binding result (OX40): no binding (tested: not on the sheet; paragraph 335: 0.5 µg/mL)
binding result (CD30): no binding (tested: not on the sheet; paragraph 335: 0.5 µg/mL)
binding result (NGFR): no binding (tested: not on the sheet; paragraph 335: 0.5 µg/mL)
binding result (CD27): no binding (tested: not on the sheet; paragraph 335: 0.5 µg/mL)

EC50, NFκB-luciferase reporter in 293 cells overexpressing human GITR, antibody cross-linked [1]: ~2.5 nM
B2: MAB5 (IgG1 kappa) (antibody, V domains shown)
VH: B1 VH with V48L, A60T
VL: B1 VL
notes: also called MABS (misprint of MAB5)
binding result (HVEM): no binding (tested: not on the sheet; paragraph 335: 0.5 µg/mL)
binding result (DcR2): no binding (tested: not on the sheet; paragraph 335: 0.5 µg/mL)
binding result (TNFR1): no binding (tested: not on the sheet; paragraph 335: 0.5 µg/mL)
binding result (BAFFR): no binding (tested: not on the sheet; paragraph 335: 0.5 µg/mL)
binding result (OX40): no binding (tested: not on the sheet; paragraph 335: 0.5 µg/mL)
binding result (CD30): no binding (tested: not on the sheet; paragraph 335: 0.5 µg/mL)
binding result (NGFR): no binding (tested: not on the sheet; paragraph 335: 0.5 µg/mL)
binding result (CD27): no binding (tested: not on the sheet; paragraph 335: 0.5 µg/mL)
